The text below walks through data of article PMC8551311, “Energy transfer between the nicotinamide nucleotide transhydrogenase and ATP synthase of Escherichia coli” (Scientific Reports, 2021).

In general, Km refers to the concentration of substrate that gives half-maximal velocity.

Common to all, as to test: purified protein
Assay type in all cases: biochemical, Escherichia coli

Substrate in data set [1]: NC(=O)C1=CN([C@@H]2O[C@H](COP(=O)(O)OP(=O)(O)OC[C@H]3O[C@@H](n4cnc5c(N)ncnc54)[C@H](O)[C@@H]3O)[C@@H](O)[C@H]2O)C=CC1
The note with it: apparent, forward reaction, 0.5 mM NADP+ held constant by glutathione reductase/oxidized glutathione, 50 mM HEPES pH 7.5, 0.1% DDM.

Substrate in data set [2]: NC(=O)c1ccc[n+]([C@@H]2O[C@H](COP(=O)(O)OP(=O)(O)OC[C@H]3O[C@@H](n4cnc5c(N)ncnc54)[C@H](O)[C@@H]3O)[C@@H](O)[C@H]2O)c1
The note with it: apparent, reverse reaction, 100 μM NADPH held constant by glucose-6-phosphate dehydrogenase/D-glucose-6-phosphate, 5 mM MgCl2, 50 mM HEPES pH 7.5, 0.1% DDM.

Substrate in data set [3]: NC(=O)C1=CN([C@@H]2O[C@H](COP(=O)(O)OP(=O)(O)OC[C@H]3O[C@@H](n4cnc5c(N)ncnc54)[C@H](OP(=O)(O)O)[C@@H]3O)[C@@H](O)[C@H]2O)C=CC1
The note with it: apparent, reverse reaction, 0.5 mM NAD+ held constant by lactate dehydrogenase/pyruvate, 50 mM HEPES pH 7.5, 0.1% DDM.

Substrate in data set [4]: NC(=O)c1ccc[n+]([C@@H]2O[C@H](COP(=O)(O)OP(=O)(O)OC[C@H]3O[C@@H](n4cnc5c(N)ncnc54)[C@H](OP(=O)(O)O)[C@@H]3O)[C@@H](O)[C@H]2O)c1
As to conditions: apparent, forward reaction, NADH held constant by alcohol dehydrogenase/ethanol (50 μM in methods, 500 μM in results), 6 mM hydrazine, 50 mM HEPES pH 7.5, 0.1% DDM.

B1: E. coli transhydrogenase (TH, EcTH) (Escherichia coli K-12) (protein)
chain 1: MRIGIPRERLTNETRVAATPKTVEQLLKLGFTVAVESGAGQLASFDDKAFVQAGAEIVEGNSVWQSEIILKVNAPLDDEIALLNPGTTLVSFIWPAQNPELMQKLAERNVTVMAMDSVPRISRAQSLDALSSMANIAGYRAIVEAAHEFGRFFTGQITAAGKVPPAKVMVIGAGVAGLAAIGAANSLGAIVRAFDTRPEVKEQVQSMGAEFLELDFKEEAGSGDGYAKVMSDAFIKAEMELFAAQAKEVDIIVTTALIPGKPAPKLITREMVDSMKAGSVIVDLAAQNGGNCEYTVPGEIFTTENGVKVIGYTDLPGRLPTQSSQLYGTNLVNLLKLLCKEKDGNITVDFDDVVIRGVTVIRAGEITWPAPPIQVSAQPQAAQKAAPEVKTEEKCTCSPWRKYALMALAIILFGWMASVAPKEFLGHFTVFALACVVGYYVVWNVSHALHTPLMSVTNAISGIIVVGALLQIGQGGWVSFLSFIAVLIASINIFGGFTVTQRMLKMFRKN
chain 2: MSGGLVTAAYIVAAILFIFSLAGLSKHETSRQGNNFGIAGMAIALIATIFGPDTGNVGWILLAMVIGGAIGIRLAKKVEMTEMPELVAILHSFVGLAAVLVGFNSYLHHDAGMAPILVNIHLTEVFLGIFIGAVTFTGSVVAFGKLCGKISSKPLMLPNRHKMNLAALVVSFLLLIVFVRTDSVGLQVLALLIMTAIALVFGWHLVASIGGADMPVVVSMLNSYSGWAAAAAGFMLSNDLLIVTGALVGSSGAILSYIMCKAMNRSFISVIAGGFGTDGSSTGDDQEVGEHREITAEETAELLKNSHSVIITPGYGMAVAQAQYPVAEITEKLRARGINVRFGIHPVAGRLPGHMNVLLAEAKVPYDIVLEMDEINDDFADTDTVLVIGANDTVNPAAQDDPKSPIAGMPVLEVWKAQNVIVFKRSMNTGYAGVQNPLFFKENTHMLFGDAKASVDAILKAL
Regarding B1, the Km in the data set “purified protein [1]” stood at 6.8 ± 1 µM; in “purified protein [2]”, 108 ± 12 µM; in the data set “purified protein [3]” it was 4.1 ± 1.2 µM; in the data set “purified protein [4]”, 37 ± 7 µM.
